The target in assay [1] is T1, human TROP2 (purified recombinant antigen, Acro Biosystems Cat #TR2-H5223) (human, UniProt P09758 27-274).
T1 construct: Bought recombinant protein; also called huTROP2
T1 sequence: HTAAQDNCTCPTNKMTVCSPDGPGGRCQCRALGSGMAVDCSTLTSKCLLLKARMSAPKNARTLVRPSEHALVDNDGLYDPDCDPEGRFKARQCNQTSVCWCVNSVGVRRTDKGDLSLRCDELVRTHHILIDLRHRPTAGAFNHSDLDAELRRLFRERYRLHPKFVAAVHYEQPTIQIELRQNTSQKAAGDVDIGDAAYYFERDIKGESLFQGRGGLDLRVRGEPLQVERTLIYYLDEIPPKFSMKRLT
Briefly: MSD assay: biotinylated TROP2 on streptavidin plate, antibody titrated, anti-human SULFO-TAG detection.

In assay [2] the target is T2, human EpCAM (purified recombinant antigen, Acro Biosystems Cat #EPM-H5223) (human, UniProt P16422 24-265).
T2 construct: Bought recombinant protein
T2 sequence: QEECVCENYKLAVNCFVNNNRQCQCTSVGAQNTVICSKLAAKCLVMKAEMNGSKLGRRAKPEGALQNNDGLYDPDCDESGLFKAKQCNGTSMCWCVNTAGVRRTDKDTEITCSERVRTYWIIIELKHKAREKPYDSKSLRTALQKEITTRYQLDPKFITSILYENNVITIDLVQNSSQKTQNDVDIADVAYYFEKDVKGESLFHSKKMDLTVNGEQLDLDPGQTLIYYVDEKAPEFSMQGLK
Briefly: SPR, Carterra LSA; antibody captured on anti-human IgG, antigen injected.

The target of assay [3] is T3, mouse TROP2 (purified recombinant antigen, Acro Biosystems Cat #TR2-M52H6) (mouse, UniProt Q8BGV3 25-270).
T3 construct: Bought recombinant protein; also called msTROP2
T3 sequence: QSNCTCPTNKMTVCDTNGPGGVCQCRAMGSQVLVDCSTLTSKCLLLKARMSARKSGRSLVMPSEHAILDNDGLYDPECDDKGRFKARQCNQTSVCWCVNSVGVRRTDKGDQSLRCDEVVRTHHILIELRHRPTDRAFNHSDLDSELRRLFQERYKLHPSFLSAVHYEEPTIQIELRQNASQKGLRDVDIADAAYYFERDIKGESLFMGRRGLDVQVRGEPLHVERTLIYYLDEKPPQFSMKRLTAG
The assay is described as above.

Assay [4] concerns the target T4, human Trop2 on cells (FaDu cells, endogenous; ExpiCHO cells overexpressing human Trop2) (human, UniProt P09758 27-323).
T4 construct: Cell-surface form
T4 sequence: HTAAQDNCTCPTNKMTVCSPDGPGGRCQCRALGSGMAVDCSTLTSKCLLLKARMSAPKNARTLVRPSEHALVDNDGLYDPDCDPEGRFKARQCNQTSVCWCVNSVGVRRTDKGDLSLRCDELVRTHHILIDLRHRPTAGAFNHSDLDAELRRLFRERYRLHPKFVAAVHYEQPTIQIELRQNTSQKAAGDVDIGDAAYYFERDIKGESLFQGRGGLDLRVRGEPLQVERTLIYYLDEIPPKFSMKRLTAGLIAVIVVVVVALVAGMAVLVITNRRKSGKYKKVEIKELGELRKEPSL
Briefly: flow cytometry on FaDu cells (endogenous human Trop2); average of n=1-3 experiments.

Assay [5] deals with T5, cynomolgus/rhesus TROP2 (purified recombinant antigen, Acro Biosystems Cat #TR2-R52H3) (cynomolgus/rhesus, UniProt P09758 27-274 (human entry)).
T5 construct: Bought recombinant protein; also called cyTROP2; cyno/rhesus TROP2
T5 chain: T1 sequence with M36V, S67N, I204V
Briefly: SPR, Carterra LSA; antibody captured on anti-human IgG, antigen injected; 1:1 fit.

The target of assay [6] is T1, human TROP2 (purified recombinant …). Described as above.
For assay [7] the target is unchanged. The assay is described as above. This is another data set of the same source.
Assay [8] deals with T4, human Trop2 on cells (FaDu cells, …). The experiment in a line: flow cytometry on ExpiCHO cells overexpressing human Trop2, percent of cells bound.
The target of assay [9] is T3, mouse TROP2 (purified recombinant …). Briefly: SPR, Carterra LSA; antibody captured on anti-human IgG, antigen injected; 1:1 fit.
Assay [10] addresses T6, mouse Trop2 on ExpiCHO cells overexpressing mouse Trop2 (mouse, UniProt Q8BGV3 25-317).
T6 construct: Cell-surface form
T6 sequence: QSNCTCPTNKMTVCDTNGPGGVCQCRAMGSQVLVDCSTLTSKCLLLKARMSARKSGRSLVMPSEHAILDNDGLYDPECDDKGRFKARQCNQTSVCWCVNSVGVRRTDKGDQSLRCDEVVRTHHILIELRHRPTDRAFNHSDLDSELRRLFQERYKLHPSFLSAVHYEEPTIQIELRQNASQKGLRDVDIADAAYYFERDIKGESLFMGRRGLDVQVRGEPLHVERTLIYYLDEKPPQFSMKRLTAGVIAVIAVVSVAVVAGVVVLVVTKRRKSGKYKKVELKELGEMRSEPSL
The experiment in a line: flow cytometry on ExpiCHO cells overexpressing mouse Trop2, percent of cells bound.

Assay [11] concerns the target T3, mouse TROP2 (purified recombinant …). The experiment in a line: SPR, Carterra LSA; ratio of KD values, reference huTROP2.

Substitutions are numbered along the chain they refer to. Read-outs that look alike come from different tables or passages of the source.

B1: SD-813149 (antibody, V domains shown)
VH: EVKLDESGGGLVKPGGSLKLSCAASGFTFSSYTMSWVRQTPEKRLEWVATINSDGIYTYYPDSVKGRFTISRDNAKNTLYLQMSSLKSEDTAMYYCTRVHYYGYDAMDYWGQGTSVTVSS
VL: EIQMTQSPASLSASVGETVTITCRASENIYSYLAWYQQKQGKSPQLLVYSAKTLAEGVPSRFSGSGSGTHFSLKINSLQPEDFGSYYCQHHYGIPLTFGAGTKLELK
notes: Mouse/human chimera
Regarding B1, the concentration for a half-maximal effect (EC50 (read off the curve)) in assay [1] was around 0.2 nM. Further, the binding result in assay [2] and in assay [3] was “no binding (tested: 1 µM top concentration)” in each case. The molecule further displayed a concentration giving a half-maximal response (EC50) in [4] of 2.19 nM. The dissociation constant (Kd) came to 0.38 nM in assay [5], 0.43 nM in assay [6] and 0.43 nM in [7]. Besides, the dissociation rate constant (koff) in [7] was 0.000163 s⁻¹. The kon in assay [7] amounted to 377000 M⁻¹ s⁻¹.

B2: SD-175533 (antibody, V domains shown)
VH: QIQLQESGPGLMKPSQSLSLTCTVTGYSITSDYAWNWIRQFPGNKLEWMGHITYSGSTSYNPSLKSRISISRDTSKNQFFLQLNSVTTGDTATYYCARGGSTLISGDFDYWGQGTTLTVSS
VL: DIVLTQSHKFMSTSVGDRVSITCKASQDVSTAVAWYQQKPGQSPKLLIYSASYRYTGVPDRFTGSGSGTDFTFTISSVQAEDLAVYYCQQHYSTPLTFGAGTKLELK
notes: Mouse/human chimera
On to B2, for which, in assay [1], the “EC50 (read off the curve)” value was around 0.3 nM. Also, the binding result in assay [2] and in assay [3] was “no binding (tested: 1 µM top concentration)” each time. This molecule displayed an EC50 in assay [4] of 2.36 nM. For the same molecule, the dissociation constant (Kd) in assay [5] came to 0.1 nM; in assay [6], 0.2 nM; in assay [7] it was 0.2 nM. Further, the dissociation rate constant (koff) in [7] came out at 3.96e-05 s⁻¹. Moreover, the kon in [7] came out at 197000 M⁻¹ s⁻¹.

B3: SD-661765 (antibody, V domains shown)
VH: QVQLVETGGDLVKPGGSLKLSCAASGFTFSTYGMSWVRQTPDKRLEWVATISSGGIYTYYSDSVKGRFTISRDNAKNTLYLQMSSLKSEDTAMYYCARDGNYLGFDFWGQGTTLTVSS
VL: DIVMTQSPASLAVSLGQRATISCRASESVESYGNSFMNWYQQKPGQPPKLLIYRASNLESGIPARFSGSGSRTDFTLTINPVEADDVATYYCQQSYEDPRTFGGGTKLEIK
notes: Mouse/human chimera
Regarding B3, the half-maximal effective concentration (EC50 (read off the curve)) in [1] is around 0.2 nM. Also, the binding result in [2] and in assay [3] was “no binding (tested: 1 µM top concentration)” each time. The molecule also came in with a half-maximal effective concentration (EC50) in assay [4] of 1.07 nM. Further, the Kd in assay [5] stood at 1.82 nM; in assay [6] it was 1.65 nM; in [7] it was 1.65 nM. The koff in [7] was found to be 0.000574 s⁻¹. Moreover, the association rate constant (kon) in assay [7] stood at 348000 M⁻¹ s⁻¹.

B4: SD-530939 (antibody, V domains shown)
VH: AVTLDESGGGLQTPGGGLSLVCKASGFDFIDYDMFWVRQAPGKGLEWVGVINRSGSYTNYAPAVKGRATISRDNGQSTLRLQLNNLRAEDTGTYYCARGACTHCWDADSAGYIDAWGHGTEVIVSS
VL: ALALTQPSSVSANPGETVKITCSGGYSGYGWYQQKSPGSAPVTVIYWNDKRPSNIPSRFSGSLSGSTNTLIITGVQAEDEAVYFCGGYDSSPGYVGIFGAGTTLTVL
notes: Chicken/human chimera
As to B4, the concentration giving a half-maximal response (EC50 (read off the curve)) in [1] is around 0.2 nM; in [8] it was around 0.02 nM; in [10], around 0.02 nM. Moreover, the binding result in assay [2] was “no binding (tested: 1 µM top concentration)”. Further, in [4], the 50% effective concentration (EC50) is 0.673 nM. Also, the Kd stood at 0.6 nM in [5], 0.46 nM in assay [6], 0.96 nM in assay [9] and 0.46 nM in [7]. Besides, the “Fold difference in affinity (huTROP2:msTROP2)” value (from here on “Fold difference in affinity”) in assay [11] is 2.1 fold. The koff in [7] was found to be 0.000155 s⁻¹. For the same molecule, the kon in [7] stood at 337000 M⁻¹ s⁻¹.

B5: SD-802432 (antibody, V domains shown)
VH: B4 VH with G49A, A115T
VL: ALALTQPSSVSANPGETVKITCSGGSGSYGWFQQKSPGIAPVIVIFNDDNRPSDIPSRFSGSKSGSTGTLTITGVQAEDEAVYFCGGYDGSTDAGIFGAGTTLTVL
notes: Chicken/human chimera
Take B5: the 50% effective concentration (EC50 (read off the curve)) is around 0.2 nM in assay [1], around 0.02 nM in assay [8] and around 0.02 nM in [10]. Further, the binding result in assay [2] is given as “no binding (tested: 1 µM top concentration)”. Besides, a half-maximal effect in assay [4] (EC50) was put at 0.738 nM. Moreover, the Kd amounted to 0.13 nM in assay [5], 0.1 nM in [6], 0.3 nM in [9] and 0.1 nM in assay [7]. For the same molecule, in [11], the “Fold difference in affinity” value worked out at 2.9 fold. Moreover, the off-rate (koff) in [7] stood at 5.53e-05 s⁻¹. For the same molecule, the on-rate (kon) in assay [7] is 542000 M⁻¹ s⁻¹.

B6: SD-589775 (antibody, V domains shown)
VH: B4 VH with L79M
VL: ALALTQPSSVSANPGGTVKITCSGSSGSYGWHQQKSPGSAPVTVIYSSDKRPSDIPSRFSGALSGSTATLTITGVRAEDEAVYYCGGYDGSTDVGIFGAGTTLTVL
notes: Chicken/human chimera; also called parental chimera
Turning to B6, in assay [2], the binding result is given as “no binding (tested: 1 µM top concentration)”. Also, the “EC50 (read off the curve)” value in assay [8] and in assay [10] was around 0.02 nM each time. For the same molecule, the concentration giving a half-maximal response (EC50) in [4] is 0.607 nM. Also, the Kd in assay [5] worked out at 0.48 nM; in [6], 0.35 nM; in [9], 0.35 nM; in assay [7], 0.35 nM. The “Fold difference in affinity” value in assay [11] turned out to be 1 fold. Also, the koff in [7] was 0.000223 s⁻¹. The kon in assay [7] was 643000 M⁻¹ s⁻¹.

The values above are taken from patent publication US20250019457A1 (IBIO, published 2025).
